Experimental data as given in US20250170255A1 (Daiichi Sankyo, published 2025).
Values belong to the binder of their own block, whether it stands above or below them.

Columns and labels:
TROP2 on FaDu cells = target: T1, TROP2 on FaDu cells (human, UniProt P09758 27-323); test: cell-based or functional assay
T1 sequence (looked up): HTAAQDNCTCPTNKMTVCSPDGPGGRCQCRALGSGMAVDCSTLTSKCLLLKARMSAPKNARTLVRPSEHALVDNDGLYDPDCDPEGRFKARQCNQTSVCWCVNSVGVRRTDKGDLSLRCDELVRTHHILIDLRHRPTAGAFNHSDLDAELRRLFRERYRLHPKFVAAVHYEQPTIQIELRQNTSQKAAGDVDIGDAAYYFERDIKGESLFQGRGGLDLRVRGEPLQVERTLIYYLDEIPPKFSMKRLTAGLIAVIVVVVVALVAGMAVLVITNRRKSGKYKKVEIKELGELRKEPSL

[1] = target: T2, biotinylated human TROP2 antigen (human, UniProt P09758 27-274, C-terminal Avi tag sequence biotinylated); test: ELISA pH 7.5 against pH 5.5
T2 construct: extracellular domain
T2 sequence (looked up): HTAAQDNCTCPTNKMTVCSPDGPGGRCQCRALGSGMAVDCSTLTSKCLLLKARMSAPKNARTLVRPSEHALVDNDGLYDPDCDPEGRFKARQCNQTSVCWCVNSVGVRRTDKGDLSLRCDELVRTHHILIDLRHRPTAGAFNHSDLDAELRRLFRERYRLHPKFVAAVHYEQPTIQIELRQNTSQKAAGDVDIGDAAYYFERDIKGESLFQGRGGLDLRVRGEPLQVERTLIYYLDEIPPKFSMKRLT

[2] = target: T2, biotinylated human TROP2 antigen; test: ELISA, immobilised biotinylated human TROP2 antigen, chemiluminescence; pH 7.5
Description: The plate was washed with PBS containing 0.05% (w/v) Tween-20 (BioRad) (ELISA buffer) and then blocked with Blocker Casein (Thermo Fisher Scientific). The plate was washed with ELISA buffer, the biotinylated human TROP2 antigen (Accession Number: P09758; the extracellular domain was purified by the method known to a person skilled in the art and the C-terminal Avi tag sequence was then biotinylated) diluted to 1 μg/ml with PBS was added at 50 μl/well, and the resultant was then agitated for 30 minutes at room temperature. […] The plate was washed with ELISA buffer, 50 μl of the horseradish peroxidase (HRP)-labeled anti-human IgG antibody (Jackson Immuno Research Laboratories) diluted to 2,500-fold with ELISA buffer was added, and the resultant was then agitated for 30 minutes at room temperature. The plate was washed with ELISA buffer, the SuperSignal Pico ELISA chemiluminescent substrate (Thermo Fisher Scientific) was added, and chemiluminescence 10 minutes thereafter was then assayed using a plate reader. […]

[3] = target: T2, biotinylated human TROP2 antigen; test: ELISA, immobilised biotinylated human TROP2 antigen, anti-FLAG-HRP detection; after MMP1 pre-treatment (mask linker cleaved)
Description: (§1) NeutrAvidin (Thermo Fisher Scientific) diluted to 1 μg/ml with PBS was added at 50 μl/well to a 96-well Maxi-sorp plate (Black, Nunc) and immobilized at 4° C. overnight. The plate was washed with PBS containing 0.05% (w/v) Tween-20 (BioRad) (ELISA buffer) and then blocked with Blocker Casein (Thermo Fisher Scientific). The plate was washed with ELISA buffer, the biotinylated human TROP2 antigen (Accession Number: P09758; the extracellular domain was purified by the method known to a person skilled in the art and the C-terminal Avi tag sequence was then biotinylated) diluted to 1 μg/ml with PBS was added at 50 μl/well, and the resultant was then agitated for 30 minutes at room temperature. […] The plate was washed with ELISA buffer, the SuperSignal Pico ELISA chemiluminescent substrate (Thermo Fisher Scientific) was added, and chemiluminescence 10 minutes thereafter was then assayed using a plate reader.
(§2) The resultant was then added to the plate comprising the human TROP2 antigen immobilized thereon at 50 μl/well. The bound scFv was detected using the HRP-labeled anti-FLAG antibody (Sigma-Aldrich) diluted to 5,000-fold with ELISA buffer.

[4] = target: T2, biotinylated human TROP2 antigen; test: ELISA, anti-FLAG detection, with and without MMP1
Description: as §2
The antibody was adjusted to 1 μM with the use of MMP buffer, MMP1 was added to the final concentration of 1 μM or 0 μM, and the reaction was allowed to proceed at 37° C. for 15 minutes. Thereafter, the antibody with the concentration thereof being adjusted with ELISA buffer was added to the wells.

[5] = target: T2, biotinylated human TROP2 antigen; test: ELISA, immobilised biotinylated human TROP2 antigen, anti-FLAG-HRP detection; after MMP1 pre-treatment (mask linker cleaved); remark: listed apart in the source
Description: as §1, §2

[6] = target: T2, biotinylated human TROP2 antigen; test: ELISA, immobilised biotinylated human TROP2 antigen, anti-FLAG-HRP detection; without MMP1
Description: as §1, §2

B1: MHT1808-PBD-ADC (antibody, human IgG1, kappa)
heavy: not shown
light: DIQMTQSPSSLSASVGDRVTITCKASQDVSTAVAWYQQKPGKAPKLLIYSASYRYTGVPSRFSGSGSGTDFTLTISSLQPEDFAVYYCQQHYITPLTFGQGTKLEIKRTVAAPSVFIFPPSDEQLKSGTASVVCLLNNFYPREAKVQWKVDNALQSGNSQESVTEQDSKDSTYSLSSTLTLSKADYEKHKVYACEVTHQGLSSPVTKSFNRGEC
modifications: N297 glycan remodelled to azide-bearing MSG1-type glycan and conjugated to Linker 2 (PBD drug linker); average number of drugs bound 1.9
- in vitro growth inhibitory activity on FaDu cells, EC50 ratio (pH 7.4/pH 5.5) (TROP2 on FaDu cells): 10.7

B2: MHT1221-PBD-ADC (antibody, human IgG1, kappa)
heavy: not shown
light: DIQMTQSPSSLSASVGDRVTITCKASQDVSTAVAWYQQKPGKAPKLLIYSASYRYTGVPSRFSGSGSGTDFTLTISSLQPEDFAVYYCQQHYITPLTFGQGTKLEIKRTVAAPSVFIFPPSDEQLKSGTASVVCLLNNFYPREAKVQWKVDNALQSGNSQESVTEQDSKDSTYSLSSTLTLSKADYEKHKVYACEVTHQGLSSPVTKSFNRGEC
modifications: N297 glycan remodelled to azide-bearing MSG1-type glycan and conjugated to Linker 2 (PBD drug linker); average number of drugs bound 1.9
- in vitro growth inhibitory activity on FaDu cells, EC50 ratio (pH 7.4/pH 5.5) (TROP2 on FaDu cells): 1.9

B3: anti-TROP2 masked antibody MHT1805 (antibody)
heavy: not shown
light: DIQMTQSPSSLSASVGDRVTITCKASQDVSTAVAWYQQKPGKAPKLLIYSASYRYTGVPSRFSGSGSGTDFTLTISSLQPEDFAVYYCQQHYITPLTFGQGTKLEIKRTVAAPSVFIFPPSDEQLKSGTASVVCLLNNFYPREAKVQWKVDNALQSGNSQESVTEQDSKDSTYSLSSTLTLSKADYEKHKVYACEVTHQGLSSPVTKSFNRGEC
notes: His cluster linker; Full-length entries
- EC50 ratio (neutral pH conditions/acidic pH conditions) [1]: 2.3

B6: MHT1001 (scFv)
scFv: AMGYLALKHPWPGLAENSGSGGGGSVLVPMAMMASGGSDVNSQVQLVQSGAEVKKPGASVKVSCKASGYTFTTAGMQWVRQAPGQGLEWMGWINTHSGVPKYAEDFKGRVTISADTSTSTAYLQLSSLKSEDTAVYYCARSGFGSSYWYFDVWGQGTLVTVSSGGGGSGGGGSGGGGSDIQMTQSPSSLSASVGDRVTITCKASQDVSTAVAWYQQKPGKAPKLLIYSASYRYTGVPSRFSGSGSGTDFTLTISSLQPEDFAVYYCQQHYITPLTFGQGTKLEIKRGAPSGDYKDDDDKGAAAHHHHHH
- EC50 (read off the curve) [3]: ~8 nM
- EC50 ratio of binding intensity (without MMP1 / with MMP1) [4]: 7.9

B7: MHT1002 (scFv)
scFv: AMGYLALKHPWPGLAENSGSGGGGSVLVPMAMMASGGSDVNSDIQMTQSPSSLSASVGDRVTITCKASQDVSTAVAWYQQKPGKAPKLLIYSASYRYTGVPSRFSGSGSGTDFTLTISSLQPEDFAVYYCQQHYITPLTFGQGTKLEIKRGGGGSGGGGSGGGGSQVQLVQSGAEVKKPGASVKVSCKASGYTFTTAGMQWVRQAPGQGLEWMGWINTHSGVPKYAEDFKGRVTISADTSTSTAYLQLSSLKSEDTAVYYCARSGFGSSYWYFDVWGQGTLVTVSSGAPSGDYKDDDDKGAAAHHHHHH
notes: Mimotope peptide, MMP cleavable linker, HT1-11 scFv, FLAG tag, His tag
- EC50 (read off the curve) [5]: ~3 nM
- EC50 ratio of binding intensity (without MMP1 / with MMP1) [4]: 4.3
- EC50 (read off the curve) [6]: ~10 nM

Next, values leading:

- EC50 ratio (neutral pH conditions/acidic pH conditions) [1]: 1.7
- EC50 (read off the curve) [2]: ~50 nM
B4: anti-TROP2 masked antibody MHT1221 (antibody)
heavy: not shown
light: DIQMTQSPSSLSASVGDRVTITCKASQDVSTAVAWYQQKPGKAPKLLIYSASYRYTGVPSRFSGSGSGTDFTLTISSLQPEDFAVYYCQQHYITPLTFGQGTKLEIKRTVAAPSVFIFPPSDEQLKSGTASVVCLLNNFYPREAKVQWKVDNALQSGNSQESVTEQDSKDSTYSLSSTLTLSKADYEKHKVYACEVTHQGLSSPVTKSFNRGEC
notes: No His cluster; Full-length entries

- EC50 ratio (neutral pH conditions/acidic pH conditions) [1]: 3.6
B5: anti-TROP2 masked antibody MHT1804 (antibody)
heavy: not shown
light: DIQMTQSPSSLSASVGDRVTITCKASQDVSTAVAWYQQKPGKAPKLLIYSASYRYTGVPSRFSGSGSGTDFTLTISSLQPEDFAVYYCQQHYITPLTFGQGTKLEIKRTVAAPSVFIFPPSDEQLKSGTASVVCLLNNFYPREAKVQWKVDNALQSGNSQESVTEQDSKDSTYSLSSTLTLSKADYEKHKVYACEVTHQGLSSPVTKSFNRGEC
notes: as for B3
